The data set can be described thus: yeast display, Sf9 membrane polyspecificity reagent, FACS + sequencing; frameworks hold sequencing errors. In outline:
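In a synthetic yeast display library (Saccharomyces cerevisiae BJ5465), nanobody expression was induced with galactose for 36–48 hours. FACS gates were set low and high (top ~1%) using anti-HA fluorescence for expression and streptavidin fluorescence for binding of the Sf9 membrane reagent. Each polyreactivity label is drawn from the gate of origin.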
For “QVQLVESVGGLVQAGGSLRLSCAASGRIFRSYTMGWYREATGKERELVAGIRASGGSTYYADSVKGRFTISRDNAKNTVYLQMNSVKPEDTAVYYCAARRYTTFGIRDYWGQGTQVTVSS”, the “polyreactivity (PSR sort gate)” value is reported as “high polyreactivity”.

Regarding “QVQLVESGGGLVQAGGSLSLICAASGRIFLRNDMGWYRQAPGKERELVAGISSDGSTYYADSVKGRFTISRDNAKNTVYLQMNSLKPEDTAVYYCAAERWGNPTDYQFWRPYDYWGQGTQVNVSS”, the “polyreactivity (PSR sort gate)” value is listed as “low polyreactivity”.

For “QVQLVESGGGLVQAGGSLRLSCAASGSTLSFKAMGWYRQAPGKERELVAGITYSGGSTYYADSVKGRFTISRDNAKNTVYLQMNSLKPEDTAVYYCNKASGVYYGHLDYWGQGTQVTVSS”, the “polyreactivity (PSR sort gate)” value is recorded as “low polyreactivity”. In the case of “QVQLVESGGGLVQAGGSLRLSCAASGRTLYYKAMGWYRQAPGKERELVAAISRSGGSTYYADSVKGRFTISRDNAKNTVYLQMNSLKPEDTAVYYCAVLPSYTSWESSDYWGQGTQVTVSS”, the “polyreactivity (PSR sort gate)” value was “high polyreactivity”. In the case of “QVQLVESGGGLVQAGGSLRLSCPDSVRIFYYNTMGWYRQAPGKERQLVAAISAGGGRTYYADSVKGRFTISRDNAKNTVYFQMNRLKPEDTAVYYCAARKRAQQGTRDHDYWGQGSQVTVSS” it was “high polyreactivity”; in that of “QVQLVESGGGLVQAGGSLRLSCAASGIIFRGNSMGWYRQAPGKERELVAAIRFSGGSTYYADSVKGRFTISRDYAKNTVYLQMNSLKPEDTAVYYFAATRRRYGSTTSEYYYWGQGTQVTVSS”, “high polyreactivity”.

As to “QVQLVESGGGLVQAGGSLRLSCAASGSTFASYAMGWYRQAPGKERELVAAISSSGARTYYADSVKGRFTISRDNAKNTVYLQMNSLKPEDTAVYYCATDSKITETSLRYDYWGQGTQVTVSS”, the “polyreactivity (PSR sort gate)” value was “high polyreactivity”. With “QVQLVESGGGLVQAGGSLRLSCAASGSIFLRNAMGWYRQAPGKERALVAAISWGGRTYYADSVKGRFTISRDNAKNTVYLQMNSLKPEDTAVYYCAADGTWVRSPHFYYWGQGTQVTVSS”, the “polyreactivity (PSR sort gate)” value is given as “low polyreactivity”. In the case of “QVQLVESGVCLVQAGGSLRLSCASSGRILSTYAMGWYRQPPGKERELVAAISSGGSTYYADSVKGRFTISRDNAKHTVDLQMNSLKPEDTAVYYCNARKKRGYSRPAFDYWGQGTQVTVSS” it was “high polyreactivity”.

For “QVQHVESGGGLVQAGGSLRLSCAASGSISKINAMGWYRQAPGKERELVAAINTGDSTYYADSVKGRFTISRDNAKNSVYLQMNSLKPEDSAVYYCAAEGSPTGYDYWGQGTQVTVSS”, the “polyreactivity (PSR sort gate)” value is recorded as “low polyreactivity”. In the case of “QVQLVESGGGLVQAGGSLRLSCAASGIIFEGYAMGWYRQAPGKERELVAGITIGDITYYADSVKGRFTISRDNAKNTVYLQMNSLKPEDTAVYYCAADSYYYQTAYDSWGQGTQVTVSS” it was “low polyreactivity”; in that of “QVQLVESGGCLVQAGGSLRLSCAASGRIFFLYAMGWYRQAPGKERELVAAITWSADGTYYADSVKGRFTISRDNAKNTVYLQMNSLKPEDTAVYYCNADAYTTASSYNWWYYYWGQGTQVTVSS”, “low polyreactivity”; in that of “QVQLVESGGGLVQAGGSLRLSCAASGFTFDSYDMGGYRQAPGKERVLVAAITWSGGSTYYADSVKGRFTISRDYAKNTVYLQMNSLKPEDTAVYYGNADTGTYWVPWYHDGYDYWGQGTQVTVSS”, “low polyreactivity”. In the case of “QVQLVESGGGLVQAGGSLRLSCAASGRIFVVYAMGWYRQAPGKERELVAAITSSGNTNYADSVKGRFTISRDNAKNTVYLQMNSLKPEDTAVYYCAATRDYSSDYWGQGTEVTVSS” it was “low polyreactivity”; in that of “QVQLVESGGGLVQAGVSLRLSCAASGSIFDVYAMGWYRQAPGKERELVATISYGDSSTYYADSVKGRFTISRDNAKNTVYLQMNSLKPEDTAVYYCAADYLTAPRWRQWGEMDYWGQGTQVTVSS”, “low polyreactivity”; in that of “KDQLVESGGGLVQAGGSLRLSCAASGRTFSHYTMGWYIQAPGKERELVARITRRGGRTYYADSVKGRFTISRDDAKNTVFLQMISLKPEDSAVYFCANEPWGYTRYTTYDYWGQGTQVTVSS”, “high polyreactivity”. Take “QVQLVESGGGLVQAGGSLRLSGAASGSIFNRNAMGWYRQAPGKESELVARISWTAGSTYYADSEKARFTISRDYAKNTVYLQMNSLKPEDTAVYYCNDVKGYYDLYDKFDYWGQGTQVTVSS”: the “polyreactivity (PSR sort gate)” value was “low polyreactivity”. In the case of “QVQLVESGGGLVQAGGSLRLSCAASGITFDYYGMGWYRQAPGKERELFASITSGGSTNYADSVKGRFTISRDNAKNTVYLQMNSLKPEDTAVYYCNAEFWEVSPDPRDYDYWGQGTQVTVSS” it was “low polyreactivity”; in that of “QVQLVESGGGLVQAGGSLRLSCAASGRTFKNNAMGWYRQAPGKERELVAAISSNGGSTYYADSVKGRFTISRDNAKNTVYLQMNSLKPEDTAVYYCAADRTIVEYYYWGQGTQVTVSS”, “high polyreactivity”.

As to “QVQLVESGGGLVQAGGSLRLSCAASGSIFYNYAMGWYRQAPGKERQLVATITRSDGSTYYADSVKGRFTISRDNAKNTVYLQMNSLKPEDTAVYYCNADSLWDSAFGYDYWGQGTQVTVSS”, the “polyreactivity (PSR sort gate)” value is on record as “low polyreactivity”.

With “QVQLVESGGGLVQAGGSLRLSCAAAGRTFYNYAMGWYRQAPGKERELVAAIDWGSDSTYYADSVKGRFTISRDNAKNTVYLQMNSLKPEDTAVYYCAKRPKNKPVLGDYDHWGQGTQVTVSS”, the “polyreactivity (PSR sort gate)” value is reported as “low polyreactivity”. On to “QVQLVESGGGLVQAGGSLRLSCAASGSTSLKNAMGWYRQAPGKERELVAAINSVGDTYYADSVKGRFTISRDNAKNTVYLQMNSLKPEDTAVYYCAKRVVRYGKRMGYWGQGTQVTVSS”, for which the “polyreactivity (PSR sort gate)” value is reported as “high polyreactivity”. Consider “QVQLVESGAGLVQAGGSLRISCAASGFTFQKNAMGWYRQSPGKERELVAAISSSGGSTYYADSVKGRFTISRDNAKNTVYLQMNSMKPDDTAVYYCNAVTLANKYNDYGYWGQGTQVTVSS”, for which the “polyreactivity (PSR sort gate)” value is reported as “high polyreactivity”.

Take “QVQLVESGGGLVQAGGSLRLSCAASGRIFLRNAMGWYRQAPGKERELVAGINSGGSTYYADSVKGRFTISRDNAKNTVYLQMNSLKPEDTAVYYCAADDGNFLSEDRDSYYGYDYWGQGTQVTVSS”: the “polyreactivity (PSR sort gate)” value is “low polyreactivity”. In the case of “QVQLVESGGGLVQAGGSLRLSCAASGSIFDYTAMGWYRQAPGKERELVASIRWSGGRTYYADSVKGRFTISRDNAKNTVYLQMNSLKPEDTAVYYCNRKPQEYVLQGSSNGYDYWGQGTQVTVSS” it was “low polyreactivity”; in that of “QVQLVDSGGGLVQAGGSLRLSCAASGFIFGKYAMGWYRPAPGKEREFVAAITGNGGSTYYADSVKGRFTISRDNAKNTVYLQMNSLKPEDTAVYYCAADASWELFAWAHYDYWGQGTQVTVSS”, “low polyreactivity”. In the case of “QVQLVESGGGLVQAGGSLRLSCAASGFTFRYYAMGWYRQAPGKERELVAAISAGGSTYYADSVKGRFTISRDNAKNTVYLQMNSLKQEDTAVYYCTARYQGFVITYYYWGQGTQVTVSS” it was “high polyreactivity”; in that of “QVQLVESGGGLVQAGGSLRLSCAASGRTFTRYAMGWYRQAPGKERELVAAISWSGTSTHYADSVKGGFTISRDNATNTVYLQMNSLKPEDTAVYYCAARRYPVLKYDYWGQGTQVTVSS”, “high polyreactivity”. Regarding “QVQLQESGGGLVQAGGSLRLSCAASGTISYAPHMGWYRQAPGTDSELVAGITIGGTTYYADSVKGRFTISRDNAKNTVYLQMNSLSPGDTAVYYCAAHSEQYTPFYYWGQGTQVTVSS”, the “polyreactivity (PSR sort gate)” value is on record as “low polyreactivity”. For “QVQLVESGGGLFQAGGSLRLTCAASGFTFSYNAMGWYRQAPGKERELVAAISSSGGSTYYADSVKVRFTISRENAKNTVYLPMNSLKPVDTAVYYCAVPYLTLYGRTYDYWGQGTLVTVSS” the value was “high polyreactivity”.

Source of the values: the nanobody polyreactivity screen of Harvey et al. (2022).
